Assay results published in patent US20140256614.

Tested on: MK2-activating peptide (transduction domain YARAAARQARA coupled to a Kaposin-derived region)

Substance: MK2 (endogenous, in rat pulmonary endothelial cells, RPMEC)
- HSP27 phosphorylation in RPMEC after MK2 siRNA knock-down against control siRNA: MK2 siRNA reduced the level of MK2 in the cells and blocked the activity of the MK2-activating peptide
- phosphorylated HSP27 by immunoblot, time course at 50 µM peptide, RPMEC: significant MK2 activation was observed by 15 minutes of treatment
